Test results published in US6406883.

Molecular target: human laminin (immobilized; Gibco BRL) (human) (UniProt P25391)
Assay: cell-based or functional assay
[1] = scale: % of values obtained for the wildtype strain

Substance | adherence of FITC-labelled lmb mutant lmb-k1 to immobilized laminin, relative to wildtype strain O90R [1] | adherence of FITC-labelled lmb mutant lmb-k2 to immobilized laminin, relative to wildtype strain O90R [1] | adherence of FITC-labelled O90R wildtype bacteria to laminin preincubated with recombinant Lmb (100 ug/ml) (% of the initial values)
Lmb on the surface of Streptococcus agalactiae (GBS) wildtype strain O90R | 25 | 25 | 
Recombinant Lmb protein harboring six consecutive histidin residues at the C-terminus (amino acid 19-306, expressed from pET21a::lmb in E. coli BL21(DE3)) |  |  | 60
